In PMC3549490:
Each block holds one binder with its values, some of them ahead of it.

Target: UNC-45 (C. elegans), full-length recombinant protein (C. elegans)
Assay: ITC

Kd: 14 µM
B1: Hsp90 (DAF-21) C-terminal peptide … (peptide)
peptide: EDASRMEEVD

Kd: 120 µM
B2: Hsp70 (HSP-1) C-terminal peptide … (peptide)
peptide: AGGPTIEEVD
